Measurements as given in the supplement of paper PMC12042874.
± gives the uncertainty stated by the source.

test: amyloid nucleation score (Sup35N fusion, yeast selection) (log enrichment); library NNK2; higher = more nucleation; inactive = no reads after selection
In short: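 Sup35N was fused to peptides of 20 random codons and expressed in psi-negative yeast, which were induced with 100 μM copper sulfate for 24 hours and then grown on medium lacking adenine and uracil for 7 days at 30°C. Plasmid inserts from input and output were sequenced on Illumina. The nucleation score is the DiMSum log enrichment of output over input reads, centred on the mode score of non-aggregating sequences. Sequences with under 100 input reads were left out, and random libraries had three technical output replicates.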

**Q.** For IFSLDFSGYVSLYLQKMNVL, which amyloid nucleation score is on record?
**A.** 0.815 ± 0.15

**Q.** For DCISRY, which amyloid nucleation score is on record?
**A.** 1 ± 0.68

**Q.** With KCDYPGFWMPGQSYKDSILD as the substance, how does the amyloid nucleation score read?
**A.** -1.61 ± 1.1

**Q.** Which amyloid nucleation score does the source give for DGKNYVKTNSNGIRNGMSIW here?
**A.** -0.576 ± 0.76

**Q.** For PKSYWLSISRLKPVSQYYLR, which amyloid nucleation score is on record?
**A.** 1.21 ± 0.24

**Q.** For ILKRMLRCIYNFNISVWIIR, which amyloid nucleation score is on record?
**A.** -0.578 ± 0.31

**Q.** Which amyloid nucleation score does the source give for RITFVILYDAFGEDMDLVSL here?
**A.** 2.09 ± 0.12

**Q.** For YLGVSSCLMSSSGRSLASTL, which amyloid nucleation score is on record?
**A.** 4.39 ± 0.09

**Q.** With YWVGIDRHFHGRQYCKAGA as the substance, how does the amyloid nucleation score read?
**A.** 1.11 ± 0.45

**Q.** With GGIAACPGLEINWKFDLVQW as the substance, how does the amyloid nucleation score read?
**A.** 0.914 ± 0.32

**Q.** With WSRTVYGIFCKIG as the substance, how does the amyloid nucleation score read?
**A.** 0.208 ± 0.65

**Q.** With ISRLWCHRHLCCPGWSMVRQ as the substance, how does the amyloid nucleation score read?
**A.** -0.063 ± 0.74

**Q.** Which amyloid nucleation score does the source give for VAESVSVT here?
**A.** 0.6 ± 0.24

**Q.** For NFMCVSYQAAANSILRVPQS, which amyloid nucleation score is on record?
**A.** 1.28 ± 0.11

**Q.** With INFLNWFNLFDGYMFSLSAY as the substance, how does the amyloid nucleation score read?
**A.** inactive

**Q.** Which amyloid nucleation score does the source give for AGRLYNISNY here?
**A.** inactive

**Q.** Which amyloid nucleation score does the source give for TYPAHFVWLCNCCVDKYSLS here?
**A.** 2.79 ± 0.069

**Q.** With QILWYWGREVFSRRDRFCSV as the substance, how does the amyloid nucleation score read?
**A.** 1 ± 0.68

**Q.** For VCAQLYPVYMWFWICMGMVQ, which amyloid nucleation score is on record?
**A.** 2.27 ± 0.14

**Q.** With TYCILPLRVRMWTSTTLCQV as the substance, how does the amyloid nucleation score read?
**A.** 4.59 ± 0.055

**Q.** With YKWWCSW as the substance, how does the amyloid nucleation score read?
**A.** -0.62 ± 0.76

**Q.** Which amyloid nucleation score does the source give for MTSYAWMNTSSM here?
**A.** inactive

**Q.** With MVSMFNGYAVLHCPLCIITR as the substance, how does the amyloid nucleation score read?
**A.** 7.11 ± 0.047

**Q.** Which amyloid nucleation score does the source give for RAVLFAVVKQM here?
**A.** 0.874 ± 0.42

**Q.** With SKTYRPCARLSFEHGRCNLV as the substance, how does the amyloid nucleation score read?
**A.** 3.68 ± 0.11

**Q.** For LTGMVTCATI, which amyloid nucleation score is on record?
**A.** 0.53 ± 0.36

**Q.** Which amyloid nucleation score does the source give for SILDATCCLGFYKVFAVGMK here?
**A.** -0.669 ± 0.44

**Q.** With GEDHYIPQLFDGSVIILART as the substance, how does the amyloid nucleation score read?
**A.** 0.117 ± 0.79

**Q.** For NICSTGPLFWNFLFVV, which amyloid nucleation score is on record?
**A.** 1.83 ± 0.15

**Q.** For WSRQHDSLMVLWGCRGYY, which amyloid nucleation score is on record?
**A.** 0.148 ± 0.5

**Q.** With FKSLVSMVENDWMS as the substance, how does the amyloid nucleation score read?
**A.** -0.855 ± 0.44

**Q.** Which amyloid nucleation score does the source give for NIQWLLQVDEDFKF here?
**A.** 1.58 ± 0.16

**Q.** With VFYELGLFLLNFVVLHASED as the substance, how does the amyloid nucleation score read?
**A.** 1.68 ± 0.18

**Q.** With YRQMIRDYWIEKQSLHIRAD as the substance, how does the amyloid nucleation score read?
**A.** 0.27 ± 0.56

**Q.** For LSHMPDMALAKPWHRARD, which amyloid nucleation score is on record?
**A.** 5.04 ± 0.076

**Q.** With VSGCRGVMLI as the substance, how does the amyloid nucleation score read?
**A.** -0.816 ± 0.54

**Q.** For FRYIFRHKHGWTFLHKMVRK, which amyloid nucleation score is on record?
**A.** -1.07 ± 1.1

**Q.** For PFPSPSDSGTVAA, which amyloid nucleation score is on record?
**A.** 0.737 ± 0.54

**Q.** Which amyloid nucleation score does the source give for FLRVRP here?
**A.** -0.719 ± 0.29

**Q.** Which amyloid nucleation score does the source give for TVMKDYMALESSSYVNPMLI here?
**A.** -0.251 ± 0.76

**Q.** For ILDFKWNYYG, which amyloid nucleation score is on record?
**A.** 3.05 ± 0.11

**Q.** With CPEDVAEFMCRALFRSISIG as the substance, how does the amyloid nucleation score read?
**A.** 0.45 ± 0.74

**Q.** For ASGEDVNPSVCFHTTAMLYQ, which amyloid nucleation score is on record?
**A.** 0.98 ± 0.66

**Q.** Which amyloid nucleation score does the source give for GCDLKLGVKCLKNERRVPEF here?
**A.** 0.382 ± 0.8

**Q.** For LVESVTEEQE, which amyloid nucleation score is on record?
**A.** 0.837 ± 0.47

**Q.** Which amyloid nucleation score does the source give for TPFGTVECTQLLLSTSRWLF here?
**A.** -0.26 ± 1

**Q.** With MCTELYEDGNKPTTRSDRSA as the substance, how does the amyloid nucleation score read?
**A.** 3.21 ± 0.1

**Q.** With NGSESAYGNSLWLCLLEAAI as the substance, how does the amyloid nucleation score read?
**A.** inactive

**Q.** For SDNEEKTCGAFVVLS, which amyloid nucleation score is on record?
**A.** -0.719 ± 0.49

**Q.** With HLLYPSSMVDRALHGLDTRT as the substance, how does the amyloid nucleation score read?
**A.** 5.358 ± 0.051

**Q.** With PSCFQDYKWQMWQLTRAWNF as the substance, how does the amyloid nucleation score read?
**A.** -0.758 ± 0.55

**Q.** For TVSIDLASIWALA, which amyloid nucleation score is on record?
**A.** inactive

**Q.** For YGVFYCSMPYCTSWGIHCVL, which amyloid nucleation score is on record?
**A.** 7.19 ± 0.077

**Q.** Which amyloid nucleation score does the source give for VVSKLFRDFYWRMLKSNMGW here?
**A.** 0.448 ± 0.62

**Q.** For HLNFRSGILAISFIFDLSNH, which amyloid nucleation score is on record?
**A.** inactive

**Q.** For VSCNSYMGVLMDDGRVETLE, which amyloid nucleation score is on record?
**A.** 0.486 ± 0.2

**Q.** For FNVEVRV, which amyloid nucleation score is on record?
**A.** -0.379 ± 0.45

**Q.** For SSIINMTDAVGWFLELKNGE, which amyloid nucleation score is on record?
**A.** 0.177 ± 0.37

**Q.** For SINTAVSCFMAGICNGHRSE, which amyloid nucleation score is on record?
**A.** 8.246 ± 0.061

**Q.** For MRSSFGK, which amyloid nucleation score is on record?
**A.** -0.086 ± 0.5

**Q.** For FSEVSCGLCTMYTLFVEFFN, which amyloid nucleation score is on record?
**A.** 0.174 ± 1

**Q.** With AFNWIEVCEETSPGSTTEGS as the substance, how does the amyloid nucleation score read?
**A.** 0.318 ± 0.39

**Q.** With FNRDK as the substance, how does the amyloid nucleation score read?
**A.** -0.512 ± 0.76

**Q.** Which amyloid nucleation score does the source give for FHISYDTSS here?
**A.** -0.35 ± 1.1

**Q.** With RLISYNSCLSWSSWG as the substance, how does the amyloid nucleation score read?
**A.** 3.48 ± 0.087

**Q.** With RMLLQGVKAVGRGNNGINTV as the substance, how does the amyloid nucleation score read?
**A.** 0.479 ± 0.8

**Q.** For LVRSVFIRYCISIPCRTRVL, which amyloid nucleation score is on record?
**A.** 0.034 ± 1.1

**Q.** Which amyloid nucleation score does the source give for NSRLLVDGHFIRTFRAFWVN here?
**A.** -1.12 ± 0.56

**Q.** With DVGSCVRGYTGQSKNLWTYG as the substance, how does the amyloid nucleation score read?
**A.** 0.028 ± 0.79

**Q.** For VCREMSYLQ, which amyloid nucleation score is on record?
**A.** -0.809 ± 0.54

**Q.** For RRKANRVQFLSEYFLVCFVH, which amyloid nucleation score is on record?
**A.** inactive

**Q.** With DLDVN as the substance, how does the amyloid nucleation score read?
**A.** -0.214 ± 0.56

**Q.** With RILVTGI as the substance, how does the amyloid nucleation score read?
**A.** -0.653 ± 0.79

**Q.** Which amyloid nucleation score does the source give for KKACSLFTRGFGRYRNTYEV here?
**A.** inactive

**Q.** Which amyloid nucleation score does the source give for NFMSYIDKRWYQWLVSDRIS here?
**A.** 5.413 ± 0.047

**Q.** Which amyloid nucleation score does the source give for MFGHHKS here?
**A.** -0.5 ± 0.63

**Q.** With FFYLRFAQWQLCRTFNAQGM as the substance, how does the amyloid nucleation score read?
**A.** -0.184 ± 1.1

**Q.** With FVLTCRSSLYAVRDRLK as the substance, how does the amyloid nucleation score read?
**A.** 1.35 ± 0.43

**Q.** With WMIGRCD as the substance, how does the amyloid nucleation score read?
**A.** 0.319 ± 0.61

**Q.** With RNRRVWM as the substance, how does the amyloid nucleation score read?
**A.** -0.003 ± 0.41

**Q.** With YFILVLVESLHPSGVPAFWC as the substance, how does the amyloid nucleation score read?
**A.** -0.103 ± 0.65

**Q.** For DFLNWEDFCIMSECWNSTVQ, which amyloid nucleation score is on record?
**A.** inactive

**Q.** With IVWLLLSGRF as the substance, how does the amyloid nucleation score read?
**A.** 4.54 ± 0.098

**Q.** With NNRWVRKVSDYRVSC as the substance, how does the amyloid nucleation score read?
**A.** 0.243 ± 0.64

**Q.** For HSSSDVCT, which amyloid nucleation score is on record?
**A.** 5.295 ± 0.049

**Q.** With YLWDRSATRS as the substance, how does the amyloid nucleation score read?
**A.** 0.605 ± 0.29

**Q.** With GLGLICLQMGGFCMWRFRRM as the substance, how does the amyloid nucleation score read?
**A.** 0.197 ± 0.24
